Test results published in US20260216374.

Test system: Human POU5F1B (HA-tagged, overexpressed in SW480 cells)

ZDHHC-17 palmitoyl transferase, sequence (chain, as listed by the source): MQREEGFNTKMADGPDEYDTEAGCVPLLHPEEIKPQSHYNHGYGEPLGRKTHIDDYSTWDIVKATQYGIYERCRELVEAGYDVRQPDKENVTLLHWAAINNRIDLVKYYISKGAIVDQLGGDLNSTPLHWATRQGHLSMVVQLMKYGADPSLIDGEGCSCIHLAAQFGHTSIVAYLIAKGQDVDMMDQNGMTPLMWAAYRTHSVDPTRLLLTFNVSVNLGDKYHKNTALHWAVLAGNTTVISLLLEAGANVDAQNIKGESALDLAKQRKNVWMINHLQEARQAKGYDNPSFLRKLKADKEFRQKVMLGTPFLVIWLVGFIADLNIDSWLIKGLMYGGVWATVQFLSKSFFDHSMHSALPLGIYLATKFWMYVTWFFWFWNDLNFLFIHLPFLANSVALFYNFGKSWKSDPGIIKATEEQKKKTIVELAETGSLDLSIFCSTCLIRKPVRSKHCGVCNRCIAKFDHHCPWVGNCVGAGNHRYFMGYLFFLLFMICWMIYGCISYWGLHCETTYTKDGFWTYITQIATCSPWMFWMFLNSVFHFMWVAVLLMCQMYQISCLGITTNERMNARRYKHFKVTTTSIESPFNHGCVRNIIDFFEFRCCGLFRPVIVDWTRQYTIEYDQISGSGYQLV

**Q.** With ZDHHC-17 palmitoyl transferase as the substance, how does the “DRM association of POU5F1B upon ZDHHC-17 knockdown” value read?
**A.** POU5F1B dissociates from DRMs upon ZDHHC-17 knockdown
